Laboratory results reported in the DeepSol protein solubility set.

Assay: soluble on expression in E. coli; label from the status in PepcDB or PDB records

Sequence | soluble on expression in E. coli
EANLKPENVEIHIIDDNFFLKWNSSSESVKNVTFSADYQILGTDNWKKLSGCQHITSTKCNFSSVELENVFEKIELRIRAEEGNNTSTWYEVEPFVPFLEAQIGPPDVHLEAEDKAIILSISPPGTKDSIMWAMDRSSFRYSVVIWKNSSSLEERTETVYPEDKIYKLSPEITYCLKVKAELRLQSRVGCYSPVYCINTTERHKVPSPENIQINADNQIYVLKWDYPYENATFQAQWLRAFFKKIPGNHSDKWKQIPNCENVTSTHCVFPREVSSRGIYYVRVRASNGNGTSFWSEEKEFNTEMKTIIFPPVISVKSVTDDSLHVSVGASEESENMSVNQLYPLIYEVIFWENTSNAERKVLEKRTNFIFPDLKPLTVYCVKARALIENDRRNKGSSVSDTVCEKTKPGNTSK | not soluble
EDLDCTPGFQQKVFHINQPAEFIEDQSILNLTFSDCKGNDKLRYEVSSPYFKVNSDGGLVALRNITAVGKTLFVHARTPHAEDMAELVIVGGKDIQGSLQDIFKFARTSPVPRQKRSIVVSPILIPENQRQPFPRDVGKVVDSDRPERSKFRLTGKGVDQEPKGIFRINENTGSVSMTRTLDREVIAVYQLFVETTDVNGKTLEGPVPLEVIVIDQNDNRPIFREGPYIGHVMEGSPTGTTVMRMTAFDADDPATDNALLRYNIRRQTPDKPSPNMFYIDPEKGDIVTVVSPALLDRETLENPKYELIIEAQDMAGLDVGLTGTATATIMIDDKNDHSPKFTKKEFQATVEEGAVGVIVNLTVEDKDDPATGAWRAAYTIINGNPGQSFEIHTNPQTNEGMLSVVKPLDYEISAFHTLLIKVENEDPLVPDVSYGPSSTATVHITVLDVNEGPVFYPDPMMVTRQEDLSVGSVLLTVNATDPDSLQHQTIRYSVYKDPAGWLNINPINGTVDTTAVLDRESTFVDNSVYTALFLAIDSGNPPATGTGTLLITLEDVNDNAPFIYPTVAEVCDDAKNLSVVILGASDKDLHPNTDPFKFEIHKQAVPDKVWKISKINNTHALVSLLQNLNKANYNLPIMVTDSGKPPMTNITDLRVQVCSCRNSKVDCNAAGALRFSLPSVLLLSLFSLACL | soluble
EEIHLIAVNELLYVKAEDKYLSLYKVHGATTHEYLLRSSLKELLAQLDPNQFWQIHRSIVVNVGKIDKVTRDFGGKMWVHIDRLQLPVSRALQHLFKVS | not soluble
EHEICAGETGVPLATDTIMLSRQVSFDRIRLLSGVSNDELQLLNPQYKRGIIPGNTQLCRLRLPVASIKKLDKVRDSLYSPDLEASVSDFPEQGGQHSGGSGRTAIFHNVKQGETLLSIAKRYGTTVAAIKRANGLKSSSVKPGQRLQITKSSASGTKKKSKYSAKRKSRRRK | not soluble
EHNKRVNLANAGRVSSAEGIKKLRASGVKFVWVDQSLSAQQCVFKPVEEPIDIEVGDKTLSVSSKVQRAYRSREVQHKRAKKLIAEAKGLAQKLLNQTFEGKVIQVDEIESWADDMIESVFIDSDALQCVSALRQKDSYLLEHSVNVACLLVSFGKHLGLDKDTLKQLAIGGIIHDVGKIKVDDKILHKPARLTPEEFEHMKLHQVFAGEIIVEVKGLSDVSRDVCLMHHEKLDGTGYPRGLSGDEIPIHGRMSCIVDIYDALTADRCYKKGMSSAEAFKILLSLTPFHLDPDL | not soluble
EKLTLAEKVWRDHVVSKGENGEPDLLYIDLQLLHEVTSPQAFDGLRMTGRKLRHPELHLATEDHNVPTEGIKTGSLLEINDKISRLQVSTLRDNCEEFGVRLHPMGDVRQGIVHTVGPQLGATQPGMTIVCGDSHTSTHGAFGSMAFGIGTSEVEHVMATQTLPLKPFKT | not soluble
ELHAELVKRQHLETFLKTQIESELVDVYFQPIIETRTGNVVKFEALARFYHENSEYSTQEMISIIEDLELIAALDDVVCQTALKQWSHLQKIYGENIGLSINRSLNTKLDSLQVLQRSLDLIKASDVNPKLVTIELTETAYFEQDEEHAFALEQIRQEGIQIAIDDFGTGYSSFSYLEEGQFDVLKIDRKFVKNIHEGSTSYNIVKTITDLAHKLNVEVVAEGVESQRELEVLAGIGVDYMQGFLFSQA | not soluble
ELKDSYVDYTLLYDMIANRIGIEEAVVENGALRLMKNQVWAYDFLPHMLIAGGTGGGKTYFLLTIIEALLKSDAELFILDPKNADLADLGTIMTHVYSQKEQISACVEDFYERMMVRSRLMKEMPNYKTGENYAYLGLSPNFLVFDEYVAYMEMLTTKESAVILNKLKQIVMLGRQSGFFLILACQRPDA | not soluble
ELLPDVRLLYGETPFARTPVMYEPGIIILFSGHKIGYINERVFRYDANEYLLLTVPLPFECETYATSEVPLAGLRLNVDILQLQELLMDIGEDEHFQPSMAASGINSATLSEEILCAAERLLDVMERPLDARILGKQIIREILYYVLTGP | not soluble
ELTLRIAYNLFTQRPKEEYDDFARWITMTGPGKGSDVYKMNGAGEMLVFSAADFEDFLEPRPDLMPAMEEELKKVVALLVEHRWPFRLHATYDESISRFLAVFEAVDREIPFRGLRWFFDHAETISNRNLERVRRLGGGIAIQDRMAFQGEYFVARYGAEAAKRTPPIARMLAMGIPVGAGTDATRVSSYNPWLSLYWLVSGKTVGGLPLYDDANRLDRTAALRLYTEGSSWFSGDNGSKGALIAGRHADLAVLSADYFAVPEARIKDIESVLTIMGGKIVHASDEFAPLAPPLPPVSPDWSPVASYGGYHGNAAVSTGLRREPCVCHSHSPAWSGPDPRFWGIGCDCFA | not soluble
ENLMQVYQQARLSNPELRKSAADRDAAFEKINEARSPLLPQLGLGADYTYSNGYRDANGINSNATSASLQLTQSIFDMSKWRALTLQEKAAGIQDVTYQTDQQTLILNTATAYFNVLNAIDVLSYTQAQKEAIYRQLDQTTQRFNVGLVAITDVQNARAQYDTVLANELTARNNLDNAVEQLRQITGNYYPELAALNVENFKTDKPQPVNALLKEAEKRNLSLLQARLSQDLAREQIRQAQDGHLPTLDLTASTGISDTSYSGSKTRGAAGTQYDDSNMGQNKVGLSFSLPIYQGGMVNSQVKQAQYNFVGASEQLESAHRSVVQTVRSSFNNINASISSINAYKQAVVSAQSSLDAMEAGYSVGTRTIVDVLDATTTLYNAKQELANARYNYLINQLNIKSALGTLNEQDLLALNNALSKPVSTNPENVAPQTPEQNAIADGYAPDSPAPVVQQTSARTTTSNGHNPFRN | soluble
ENMLFTVVSLYISTKVLDFILEGYNPKKSVTIISDYYEEIATEIDANLERGITLFNGQGFYMRQDKKILYIVISRDQLLPLTKIVNKYDEKAFFIINDVQSVVGEGFTKQITSE | not soluble
EPDLDDWFENDREDLRHFVGIYVLAHYRNRPSDVALLADAPHHEARVLRLKNGKIVTAIQIAKEGGIPKAVIDKMAKGYKPPGNIIPDMMVKHHYAKEFARLKGYRVVRIATHPDAMDMGLGSKALELLIKEAEEKGLDWVGSGFGASPELIRFWVRNGFAVVHLSPTRNPVSGEYTAIVIKP | not soluble
EPNTPFGHTPPKGLPQDEAALDIEDAVHGALEGAGFVHYETSAFAKPAMQCRHNLNYWQFGDYLGIGAGAHGKISYPDRIERTVRRRHPNDYLALMQSQPSEAVERKTVAAEDLPFEFMMNALRLTDGVPAAMLQERTGVPSAKIMAQIETARQKGLLETDPAVFRPTEKGRLFLNDLLQCFL | not soluble
EPTNAPAALSRRFSVAPMMDWTDRHCRFFLRQLSRHTLLYTEMVTTGALLHGDRQRFLRYDECEHPLALQLGGSVPAELAACARLAEEAGYDEVNLNVGCPSDRVQHNMIGACLMGHPALVADCVKAMLDAVEIAVTVKHRIGINGRDSYAELCDFVGQVREAGCRSFTVHARIAILEGLSPKENREVPPLRYEVAAQLKKDFPDLEIVLNGGIKTLEACREHLQTFDGVMLGREAYHNPYLLAAVDSQLFGSEAPPLSRSEALLRLRPYIERHQAEGGAMHHVTRHILGLAQGFPGSRRFRQLLSVDVHKAADPLRVFDQA | not soluble
EQISISSPRKRIYHNILETIGGTPLVELHGVTEHPRIKKGTRILVKLEYFNPMSSVKDRVGFNIVYQAIKDGRLKPGMEIIESTSGNTGIALCQAGAVFGYRVNIAMPSTMSVERQMIMKAFGAELILTEGKKGMPGAIEEVNKMIKENPGKYFVANQFGNPDNTAAHHYTANEIWEDTDGEVDIVVSAVGTSGTVIGVAEKLKEKKKGIKIIAVEPEESAVLEGKAKGPHGIQGIGAGFIPDIYKKEFVDEIIPIKTQDAWKMARAVVKYDGIMCGMSSGAAILAGLKEAEKPENEGKTIVIIVPSCGERYLSTDLYKIKDEGTKIQILDSLLNEHH | soluble
ERFQLLMTQIGLQDVTTYEEFTKDAKIEKLVADKKNKTWQFHLHVPQIFPAALFHMMDVGMKRAFSQIAETEMQIVPENQTINETLIQEYWNLIVEPIGKQSPMIGKLLMEQKPTFKEPHFIEVAVHNDMEEATIQQRFQAKIIEN | not soluble
ESCDLEVYDRVNQSDQLCVISGQGNKRVSFYVTEGVVRNLSLGDKMTVEKEGNAYEGVINDISTMVDDSNGLFKIKADLAQADSVATGSVVKVKVISGRSDNVMTVPVDAIYYDGGVGNVYVYEDGAVHKKEVEVGLYDSELAEIRSGLAADELVISTWSSQLYEGSTVNLKSEGGESAPAGKEPGTGRTETSAAAE | not soluble
ESDSVEFNNAISYVNKIKTRFLDHPEIYRSFLEILHTYQKEQLHTKGRPFRGMSEEEVFTEVANLFRGQEDLLSEFGQFLPEAKR | soluble
ESRSQISRRNQDMLLSVLDLEKMTVDDIMVPRSEIIGIDINDDWKSILRQLSHSPHGRIVLYRDSLDDAISMLRVREAWRLMSEKKEFTKETMLRAADEIYFVPEGTPLSTQLVKFQRNKKKVGLVVNEYGDIQGLVTVEDILE | not soluble
EVQLQASGGGSVQAGQSLRLSCATSGATSSSNCMGWFRQAPGKEREGVAVIDTGRGNTAYADSVQGRLTISLDNAKNTLYLQMNSLKPEDTAMYYCAADTSTWYRGYCGTNPNYFSYWGQGTQVTVSSRGRHHHHHH | soluble
EVRALQLEYDQSMEAYQKLVEISPDAIYIQSMEGEILFANPSGIKLLGATDLNELVGLSVMNFIHPDYLNVVENRIGDAENLSGNISEQKAVTLKGEILDIEVVSVAFSYNGKAAEQVIVRNVT | not soluble
EVVKRDRIRNKDRPAMQLYQPGARSRNRLCPPDDSTKSGDSAAERKQESGISHRKEGGEE | soluble
EVVVVGYSTQKKESLTGALQTVKSDKLKDITTPSVENMLNGKVPGVYVAPGSGQPGSGGAVVIRGQATLSGTTAPLWVIDGVIVGSNAGALNPSDIETMTILKDAASTAIYGSQGANGVILVTTKNGK | not soluble
EYRHLVLNQLRNMGGTRFFVSLNNHQIDVDPLPESERKTLVINQVREVLESELSGIPNIEVEFTQRDKLKVFNNELPIDELPLLWAHYSLSFGDLNPPILVMQVEVAQNEWFYLAAVLPAPYINLETNYFELRQ | not soluble
FCNAFTPVKAKEVKALILDFLHTNKITLQREIESSFITSAIIAHTGIDAFSISLLLDKNK | not soluble
FDLNDFLEQKVLVRMEAIINSMTMKERAKPEIIKGSRKRRIAAGSGMQVQDVNRLLKQFDDMQRMMKKM | soluble
FDSFKIEGRAKNADYVMRTTKIYREAIDSVLDGSYYDKLEYFKKELQKVYNRSYDTGFYFRDINKNHDFQYEIEGNASKYRKIEIGRVVNFYKKVSVAEIELWHDLKIGDTILIIGKTTGCVEEVVKSMQINHKDVEIAKKGERVGVKLNHLVREGDRVYLLKET | not soluble
FEELAKQIKLAKTPRLLISLKAEVPMAIGWLKPVVLLPASMVTGLNAAQLEMLILHELAHIRRHDYLVNFLQTLIELLFFFHPSVHWIGKQMRNEREYCSDDIAVQHCGDAIAYAHTLTDTASLCAKNHFHTIPTMAMAASGGDL | not soluble
